The record followed here is patent US20230040928A1 (INSERM INSTITUT NATIONAL DE LA SANTE ET DE LA RECHERCHE …, published 2023).

Test [1] concerns the target T1, human HER4-Fc (human, UniProt Q15303 26-651).
T1 construct: Bought protein; also called HER4-Fc antigen; not shown: Fc part of the bought fusion protein, not described
T1 sequence: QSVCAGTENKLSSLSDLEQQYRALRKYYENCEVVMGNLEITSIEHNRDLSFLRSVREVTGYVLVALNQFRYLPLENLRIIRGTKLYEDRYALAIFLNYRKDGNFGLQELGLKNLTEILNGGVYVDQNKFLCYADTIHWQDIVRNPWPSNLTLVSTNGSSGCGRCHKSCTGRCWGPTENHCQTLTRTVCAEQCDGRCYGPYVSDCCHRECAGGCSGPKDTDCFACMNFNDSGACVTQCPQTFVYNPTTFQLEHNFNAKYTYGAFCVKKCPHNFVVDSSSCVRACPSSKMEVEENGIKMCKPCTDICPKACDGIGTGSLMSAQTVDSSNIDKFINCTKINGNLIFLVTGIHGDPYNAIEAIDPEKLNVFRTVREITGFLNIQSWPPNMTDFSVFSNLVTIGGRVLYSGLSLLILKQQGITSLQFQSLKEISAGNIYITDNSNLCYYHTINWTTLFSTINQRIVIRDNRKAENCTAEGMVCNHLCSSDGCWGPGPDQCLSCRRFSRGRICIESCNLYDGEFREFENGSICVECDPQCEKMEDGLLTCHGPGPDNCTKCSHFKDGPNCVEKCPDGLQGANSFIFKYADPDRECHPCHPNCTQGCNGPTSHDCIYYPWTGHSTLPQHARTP
The test can be described thus: ELISA, human HER4-Fc coated, concentration giving 50% absorbance. How it is done:
(§1) Ninety six-well enzyme immunoassay plates (Nunc Maxisorp) were coated overnight at 4° C. with HER4-Fc antigen at a concentration of 250 ng/ml in PBS pH 7.4. After four washes in PBS, containing 0.1% Tween 20 (PBS-T), plates were saturated with a 2% solution of bovine serum albumin (BSA) in PBS-T buffer for 2 h at 37° C. Two-fold or ten-fold serial dilutions of purified HER4-specific mAbs were added after four washes in PBS-T and plates were incubated at 37° C. for 2 h. Following four washes in PBS-T, 100 μl of a peroxidase-conjugated goat anti-human F(ab′)2 antibody (Jackson Immunoresearch) were added to each well. The conjugate was used at a 1:5000 dilution in PBS-T-2% BSA. The plates were incubated at 37° C. for 1 h and then washed three times in PBS-T and once in PBS. Finally a Tetramethylbenzidine solution (Sigma) was added for 30 min at ambient temperature in the dark. The reaction was stopped by adding 50 μl/well 1M […] and the absorbance was measured at 450 nm. […] HER4-specific antibodies D5 and C6, giving 50%-absorbance at concentration of 20 ng/ml and 100 ng/ml respectively, on human HER4-Fc, are more efficient for binding than F4 and H2, which gave a 50%-absorbance at concentration around 1-5 μg/ml (FIG. 1).

The next test deals with T2, EGFR receptor (UniProt P00533 25-645, limits assumed).
T2 construct: also called Her1; ErbB1
The test can be described thus: ELISA. (In general: ELISA stands for enzyme-linked immunosorbent assay.)

The next test addresses T3, HER3 receptor (UniProt P21860 20-643, limits assumed).
T3 construct: also called ErbB3
The test can be described thus: ELISA.

The target in the next test is T4, HER2 receptor (UniProt P04626 23-652, limits assumed).
T4 construct: also called Neu; ErbB2
The test can be described thus: ELISA.

For test [2], the target named is T1, human HER4-Fc. The test can be described thus: ELISA, HER4-Fc coated at 250 ng/ml, IgG in solution. The method, then:
as §1

T3 sequence (P21860 20-643 limits assumed): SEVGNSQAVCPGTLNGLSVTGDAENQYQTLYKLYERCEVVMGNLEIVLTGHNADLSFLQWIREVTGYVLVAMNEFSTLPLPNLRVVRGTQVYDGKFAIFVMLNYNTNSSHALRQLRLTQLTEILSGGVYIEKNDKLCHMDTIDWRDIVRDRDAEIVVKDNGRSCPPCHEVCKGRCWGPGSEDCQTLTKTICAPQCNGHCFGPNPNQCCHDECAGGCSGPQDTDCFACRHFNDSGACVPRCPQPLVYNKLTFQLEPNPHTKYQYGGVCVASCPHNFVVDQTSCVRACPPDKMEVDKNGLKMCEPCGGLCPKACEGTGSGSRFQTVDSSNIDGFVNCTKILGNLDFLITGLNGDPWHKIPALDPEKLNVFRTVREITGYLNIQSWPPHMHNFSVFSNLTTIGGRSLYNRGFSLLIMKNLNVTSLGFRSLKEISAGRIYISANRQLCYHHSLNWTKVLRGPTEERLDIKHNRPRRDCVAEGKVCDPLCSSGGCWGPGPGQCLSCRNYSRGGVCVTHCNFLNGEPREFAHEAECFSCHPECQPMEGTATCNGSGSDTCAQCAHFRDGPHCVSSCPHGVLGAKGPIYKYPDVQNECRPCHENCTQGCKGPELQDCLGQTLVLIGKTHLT

B1: C6 mAb (antibody, V domains shown)
VH: EVQLVESGGSLVKPGGSLRLSCAASGFTFSNYYMNWVRQAPGKGLEWISSISGSSRYIDYADFVKGRFTISRDNATNSLYLQMNSLRAEDTAVYYCVRSSSDYFGGGMDVWGRGTLVTVSS
VL: QSVLTQPASVSGSPGQSITISCAGTSSDVGGSYYVSWYQQHPGKAPKLMIYYDSYRPSGVSNRFSGSKSGNTASLTISGLQAEDEADYYCSSSTYNSTRVFGGGTKLAVLG
notes: also called antibody C6; Ab C6
In turn, B1 had a half-maximal effective concentration (EC50) with human HER4-Fc [1] of 0.1 µg/mL. The binding result in the test with EGFR receptor, with HER3 receptor and with HER2 receptor was “no binding” in each case.

B2: H2 mAb (antibody, V domains shown)
VH: EVQLVESGGSLVKPGGSLRLSCAASGFTFSNNDMNWVRQAPGKGLEWISDINGSSRYIYYADFVKGRFTISRDNATNSLYLQMNSLRAEDTAVYYCVRSSDDYFGGGMDVWGRGTLVTVSS
VL: QSVLTQPASVSGSPGQSITISCAGTSSDVGGYYSVSWYQQHPGKAPKLMIYNDSYRPSGVSNRFSGSKSGNTASLTISGLQAEDEADYYCSSSTYYSTRVFGGGTKLAVLG
notes: also called antibody H2
In the case of B2, the binding result with human HER4-Fc [2] is recorded as “binds”; with EGFR receptor, “no binding”; in the test with HER3 receptor, “no binding”; in the test with HER2 receptor, “no binding”.

B3: D5 mAb (antibody, V domains shown)
VH: EVQLVESGGSLVKPGGSLRLSCAASGFTFSNYYMNWVRQAPGKGLEWISSIDGSSRYIDYADFVKGRFTISRDNATNSLYLQMNSLRAEDTAVYYCVRSSSDYFGGGMDVWGRGTLVTVSS
VL: QSVLTQPASVSGSPGQSITISCAGTSSDVGGSSYVSWYQQHPGKAPKLMIYYDSYRPSGVSNRFSGSKSGNTASLTISGLQAEDEADYYCSSNTYYSTRVFGGGTKLAVLG
notes: also called antibody D5; anti-HER4 antibody D5
Molecule B3 registered an EC50 in the test with human HER4-Fc [1] of 0.02 µg/mL. In addition, the binding result with EGFR receptor, in the test with HER3 receptor and in the test with HER2 receptor was “no binding” each time.

B4: F4 mAb (antibody, V domains shown)
VH: EVQLVESGGSLVKPGGSLRLSCAASGFTFSNNDMNWVRQAPGKGLEWISSISGSSRYINYADFVKGRFTISRDNATNSLYLQMNSLRAEDTAVYYCVRSSDDYFGGGMDVWGRGTLVTVSS
VL: QSVLTQPASVSGSPGQSITISCAGTSSDVGGYSGVSWYQQHPGKAPKLMIYNDSYRPSGVSNRFSGSKSGNTASLTISGLQAEDEADYYCSSYTNNSTRVFGGGTKLAVLG
notes: also called antibody F4
For the molecule B4, the binding result in the test with human HER4-Fc [2] was “binds”; with EGFR receptor, “no binding”; in the test with HER3 receptor, “no binding”; with HER2 receptor, “no binding”.

The term EC50 denotes the midpoint of the concentration-response curve.
